These results are taken from patent publication US10705101B2, “Determination of the unbound free fatty acid profiles in biological and industrial specimens” (priority 2013, dated 2020).

One may read the Kd as the equilibrium constant for the complex coming apart.

Test [1] is described as follows: FFAu profiles in plasma of rats infused with nicotinic acid and different oils. The format is in vivo. The settings on record: rat plasma. As to the method:
The 5 panels from top to bottom are: A: saline, B: nicotinic acid, C: nicotinic acid+safflower oil, D: nicotinic acid+olive oil, and E: nicotinic acid+coconut oil.
That the FFAu profiles are determined accurately by the method of the present invention is determined by infusing into the blood circulation, of animals and potentially in human subjects, oil/lipid emulsions of known composition, together with heparin. The oils are hydrolyzed by lipoprotein lipases that are released from the capillary endothelial cells by heparin. This lipase activity releases FFAu from the oil that is characteristic of the oil's known composition. Comparing FFAu profiles determined before and after infusion allows determination of the oil composition overlayed on the plasma matrix. Comparing results with different oils and at different levels assesses the validity of the method for determining FFAu profiles in blood samples (for example FIG. 2).
Results are averages of 7 animals for each condition. Nicotinic acid inhibits hormone sensitive lipase (HSL) in adipose tissue resulting in a reduction in circulating FFA levels. Whereas infusion of emulsions of oils of different compositions, together with heparin to activate lipoprotein lipase, will result in the increase of plasma FFA that reflect the composition of the infused oils. When infused together NA and oils results in FFAu profiles that are a conflation of the two effects. […] Adding NA reduces all FFAu except AA which becomes the dominant fraction at nearly 50%. […] NA plus coconut oil results in LAU and MA contributing over 90% of the total FFAu (total FFAu=sum of the concentrations of each of the 9 resolved FFAu). NA plus olive oil results in OA as the dominant FFAu but just barely because NA reduces baseline OA to zero and baseline LA is substantially larger than OA. Thus the FFAu profiles that result from NA plus oil are consistent with the conflation of the two effects. […] Whereas the amount of safflower and coconut oil infused increased the total FFAu to 42 and 92 nM, respectively, consistent with their dominant effects as compared to olive oil (FFAu total=8 nM).

Test [2] is described as follows: Probe calibration by titration with FFA / FFA-BSA complexes: LNA. In kind it is binding. The settings on record: equilibrium dissociation constant of probe for LNA. As for the experimental part: (§1) Calibration: Each probe is calibrated to the extent that the constants in Equation 2 are well determined for all FFAu to be included in profile calculations. Equation 2, which is the form of equation 1 for a single FFAu, relates the FFAu concentration to the equilibrium dissociation constant (Kd), fluorometric constants (Q and Rm) and the measured R values.
(§2) The calibration parameters are determined essentially as described in U.S. Pat. No. 7,601,510 which is incorporated herein by reference and (Huber et al Biochemistry (2006) 45:14263-14274) where the calibrated ADIFAB2 probe was used to generate FFA-BSA complexes with accurate and well buffered FFAu concentrations. To calibrate probes with substantially higher affinities than used in U.S. Pat. No. 7,601,510 and (Huber et al Biochemistry (2006) 45:14263-14274) a boot strap method is used in which a probe having higher affinities is calibrated with ADTFAB2. Such a probe is then used to generate FFA-BSA complexes with FFAu concentrations from 0.1 to 10 nM and these complexes are then used to calibrate other high affinity probes.
(§3) Probe calibration involves titrating the probes with either (i) un-buffered FFA or (ii) BSA-buffered FFA stocks. The un-buffered titrations involve measuring the R-value of a 1 μM probe solution as it is slowly titrated to saturation with small aliquots of a 100 to 250 μM FFA stock (Richieri G V et al. (1992) J Biol Chem 267: 23495-23501, Richieri G V et al. (1999) Mol Cell Biochem 192: 87-94). In this case, the total FFA concentration for each point in the titration is known and a nonlinear fit to the titration data yields the full set of fluorometric constants. In an un-buffered FFA titration, probe concentration is a key variable because the probe binds FFA, directly affecting the FFAu value.
(§4) Alternatively, in a BSA-buffered FFA calibration, the probe solution is titrated with a series of FFA-BSA complexes (600 μM BSA with [FFAu] ranging from 0.1 nM to 4 μM). The titration samples are FFA-BSA complex diluted 50-fold in Measuring Buffer. Probe is added to a concentration of 0.5 μM and the R-value is measured. Because BSA buffers FFAu, its concentration remains constant (i.e. known), even after the addition of probe. […] At least two calibrations with each of the up to 15 different FFA are performed for each probe.
(§5) All of the probes reveal substantial differences for different FFAu and in many cases these differences are related to the aqueous solubility of the FFA. For example, of the FFA in Table 3, SA is the least soluble and MA the most soluble. As discussed in (Richieri G V et al (2000) Biochemistry 39: 7197-7204) the tendency of natural proteins and FABPs, in particular, is for binding constants to be largest (smallest Kd) for the least soluble FFA and conversely for the most soluble FA. In two cases, ADIFAB2 and L11, Kd for SA is substantially the smallest and MA the largest and that pattern is more or less maintained for most of the other probes in Table3 with the exception of L83. In that case MA has the largest affinity while SA's more than 10 fold smaller. To some extent the other calibrations constants follow that behavior; Q is largest for the smallest Kd and Rmax is often largest, so that the probe response tends to be larger for FFA with the larger affinities. The ability to generate mutations that overcome the “natural thermodynamics” allows for probes that have a wide range of specificities and sensitivities than enable the determination of FFAu profiles.

Test [3] in a line: Probe calibration by titration with FFA / FFA-BSA complexes: POA. In kind it is binding. The settings on record: equilibrium dissociation constant of probe for POA. As for the experimental part: as §1, §2, §3, §4, §5
Test [4] can be described thus: Probe calibration by titration with FFA / FFA-BSA complexes: OA. In kind it is binding. The settings on record: equilibrium dissociation constant of probe for OA. As for the experimental part:
as §1, §2, §3, §4, §5

A short description of test [5]: Probe calibration by titration with FFA / FFA-BSA complexes: LA. In kind it is binding. The settings on record: equilibrium dissociation constant of probe for LA. As for the experimental part: as §1, §2, §3, §4, §5
A short description of test [6]: Probe response profile / specificity for different FFAu at 1 nM. The format is binding. The settings on record: FFAu giving the largest response to 1 nM of each FFAu; several listed in order of degree of specificity. From the text:
The abbreviations are: arachidonate (AA), docosahexaenoate (DHA), eicosapentaenoate (EPA), laurate (LAU), linoleate (LA), linolenate (LNA), myristate (MA), oleate (OA), palmitate (PA), palmitoleate (POA), stearate (SA), and vaccenate (VA).
Examples of probes used, generally in groups of 10 or more, to determine FFAu profiles in biological samples such as blood plasma or serum from animals and humans or media from microorganisms are shown in Table 2. In the sequences presented in Table 2 and the sequence listing, amino acids are numbered from the first residue of the mature protein. The initiator methionine residue of the wild-type protein is removed by aminopeptidase activity, leaving an alanine as residue 1. Thus, counting backwards and skipping 0, the initiator methionine is at residue position −1. Specificity indicates the FFAu that gives the largest response to 1 nM of each FFAu when one FFAu dominates the profile and more than one when there is a more even distribution of specificity. Where more than one is indicated they are listed in order of degree of specificity. The abbreviations are: arachidonate (AA), docosahexaenoate (DHA), eicosapentaenoate (EPA), laurate (LAU), linoleate (LA), linolenate (LNA), myristate (MA), oleate (OA), palmitate (PA), palmitoleate (POA), stearate (SA), and vacsinate (VA). The sequences indicate mutations relative to SEQ ID NO: 1. This sequence is a mutated rat intestinal fatty acid binding protein with a Glu 131 to Asp substitution and includes a COOH-terminal affininity tag comprising […], Gly 133 and 6 histidines.
The response profile is the fluorescence change as evaluated as (R−Ro)/Ro (ΔR/Ro) for each FFAu added as a complex of the FFA and albumin so that the FFAu concentration is clamped or buffered at 1 nM for every FFAu for which a calibration has been performed. The calculation is performed simply by rearranging equation 2 to solve for ΔR/Ro. […] However all the probes have different profiles and therefore complementary specificities for different FFAu. Abbreviations are as in Table 2.

Test [7] in a line: Probe calibration by titration with FFA / FFA-BSA complexes: DHA. The format is binding. The settings on record: equilibrium dissociation constant of probe for DHA. As to the method:
as §1, §2, §3, §4, §5

Test [8] in a line: Probe calibration by titration with FFA / FFA-BSA complexes: SA. The settings on record: equilibrium dissociation constant of probe for SA; read-out: Kd SA. In kind it is binding. As to the method:
as §1, §2, §3, §4, §5

Test [9] can be described thus: Probe calibration by titration with FFA / FFA-BSA complexes: PA. In kind it is binding. The settings on record: equilibrium dissociation constant of probe for PA. As for the experimental part: as §1, §2, §3, §4, §5
A short description of test [10]: Probe calibration by titration with FFA / FFA-BSA complexes: AA. In kind it is binding. The settings on record: equilibrium dissociation constant of probe for AA. As to the method:
as §1, §2, §3, §4, §5

A short description of test [11]: Probe calibration by titration with FFA / FFA-BSA complexes: MA. The format is binding. The settings on record: equilibrium dissociation constant of probe for MA. As for the experimental part: as §1, §2, §3, §4, §5

As for `O=C(O)c1cccnc1` [NA, nicotinic acid], in test [1], the “AA fraction of FFAu profile” value was around 50% and the “baseline OA” value was “zero”. In addition, in test [1] (sum of 9 resolved FFAu, averages of 7 animals), the “total FFAu” value was 2 nM. Further, the “reduction of total FFAu” value in [1] (versus saline, no infused oil) is reported as “more than 4 fold”.

B1: L10P7 A4 L30C: acrylodan-labeled mutant FABP probe: Y14L, M18L, K27A, L30C, G31Y, A73L, Y117A (protein, UniProt P02693 2-132, looked up, variant Y14L M18L K27A L30C G31Y A73L Y117A)
Fatty acid-binding protein, …: AFDGTWKVDRNENLEKFLEKMGINVVARKCYAHDNLKLTITQEGNKFTVKESSNFRNIDVVFELGVDFAYSLLDGTELTGTWTMEGNKLVGKFKRVDNGKELIAVREISGNELIQTATYEGVEAKRIFKKE
modifications: acrylodan label
notes: acrylodan-labeled mutant FABP probe: Y14L, M18L, K27A, L30C, G31Y, A73L, Y117A
Regarding B1, the dissociation constant (Kd) in test [2] is 2.7 nM; in [3], 5.5 nM; in test [4], 1.3 nM; in test [5] it was 1.1 nM; in [7], 1.2 nM; in test [8], 2 nM. Further, the equilibrium dissociation constant (Kd) in [9] came out at 3 nM; in test [10] it was 1 nM; in test [11], 15.4 nM. In test [6], the Specificity result is recorded as “AA/DHA/OA/EPA/LA”.

B2: L2P22 G6: acrylodan-labeled mutant FABP probe: M18I, G31Y, A73G (protein, UniProt P02693 2-132, looked up, variant M18I G31Y A73G)
Fatty acid-binding protein, …: AFDGTWKVDRNENYEKFIEKMGINVVKRKLYAHDNLKLTITQEGNKFTVKESSNFRNIDVVFELGVDFAYSLGDGTELTGTWTMEGNKLVGKFKRVDNGKELIAVREISGNELIQTYTYEGVEAKRIFKKE
modifications: acrylodan label
notes: acrylodan-labeled mutant FABP probe: M18I, G31Y, A73G
Take B2: the Kd stood at 89 nM in test [2]; 87.9 nM in test [3]; 33.9 nM in [4]; 42.2 nM in test [5]; 206 nM in test [7]; 17.6 nM in test [8]. Further, the results for the Kd in [9], in test [10] and in test [11] were 5.6 nM, 90.6 nM and 47.8 nM, respectively.

B3: L1P8 H2: acrylodan-labeled mutant FABP probe: Y14M, L38M, L72W (protein, UniProt P02693 2-132, looked up, variant Y14M L38M L72W)
Fatty acid-binding protein, …: AFDGTWKVDRNENMEKFMEKMGINVVKRKLGAHDNLKMTITQEGNKFTVKESSNFRNIDVVFELGVDFAYSWADGTELTGTWTMEGNKLVGKFKRVDNGKELIAVREISGNELIQTYTYEGVEAKRIFKKE
modifications: acrylodan label
notes: acrylodan-labeled mutant FABP probe: Y14M, L38M, L72W
As to B3, the Kd was determined as 217 nM in test [2]; 209 nM in test [3]; 14.4 nM in test [4]; 97.5 nM in [5]; 248 nM in [7]; 19.2 nM in test [8]. Besides, the Kd is 45.4 nM in test [9], 104 nM in test [10] and 299 nM in test [11]. The Specificity entry in test [6] is reported as “OA/SA/VA”.
